# Substitutions are numbered along the chain they refer to.
# B1: UGT76G1var28: UGT76G1 variant, mutations L243A_S274G_P382M (protein, UniProt Q6VAB4 1-458, looked up, variant L243A S274G P382M)
# UDP-glycosyltransferase 76G1: MENKTETTVRRRRRIILFPVPFQGHINPILQLANVLYSKGFSITIFHTNFNKPKTSNYPHFTFRFILDNDPQDERISNLPTHGPLAGMRIPIINEHGADELRRELELLMLASEEDEEVSCLITDALWYFAQSVADSLNLRRLVLMTSSLFNFHAHVSLPQFDELGYLDPDDKTRLEEQASGFPMLKVKDIKSAYSNWQILKEILGKMIKQTKASSGVIWNSFKELEESELETVIREIPAPSFAIPLPKHLTASSSSLLDHDRTVFQWLDQQPPGSVLYVSFGSTSEVDEKDFLEIARGLVDSKQSFLWVVRPGFVKGSTWVEPLPDGFLGERGRIVKWVPQQEVLAHGAIGAFWTHSGWNSTLESVCEGVPMIFSDFGLDQMLNARYMSDVLKVGVYLENGWERGEIANAIRRVMVDEEGEYIRQNARVLKQKADVSLMKGGSSYESLESLVSYISSL
# B2: UGT76G1var29: UGT76G1 variant, mutations F22Y_V279I_N409R (protein, UniProt Q6VAB4 1-458, looked up, variant F22Y V279I N409R)
# UDP-glycosyltransferase 76G1: B1 UDP-glycosyltransferase 76G1 with F22Y, A243L, G274S, V279I, M382P, N409R
# B3: UGT76G1var33: UGT76G1 variant, mutations A33G_R334H_Y397Q (protein, UniProt Q6VAB4 1-458, looked up, variant A33G R334H Y397Q)
# UDP-glycosyltransferase 76G1: B1 UDP-glycosyltransferase 76G1 with A33G, A243L, G274S, R334H, M382P, Y397Q
# B4: UGT76G1var31: UGT76G1 variant, mutations E224D_L243P_V300A (protein, UniProt Q6VAB4 1-458, looked up, variant E224D L243P V300A)
# UDP-glycosyltransferase 76G1: B1 UDP-glycosyltransferase 76G1 with E224D, A243P, G274S, V300A, M382P
# B5: UGT76G1var1: UGT76G1 variant, mutations E224A_F314S_R334K (protein, UniProt Q6VAB4 1-458, looked up, variant E224A F314S R334K)
# UDP-glycosyltransferase 76G1: B1 UDP-glycosyltransferase 76G1 with E224A, A243L, G274S, F314S, R334K, M382P
# B6: UGT76G1var38: UGT76G1 variant, mutations F41L_I295M_F377C (protein, UniProt Q6VAB4 1-458, looked up, variant F41L I295M F377C)
# UDP-glycosyltransferase 76G1: B1 UDP-glycosyltransferase 76G1 with F41L, A243L, G274S, I295M, F377C, M382P
# B7: UGT76G1var46: UGT76G1 variant, mutations F22L_Q266E_I295M (protein, UniProt Q6VAB4 1-458, looked up, variant F22L Q266E I295M)
# UDP-glycosyltransferase 76G1: B1 UDP-glycosyltransferase 76G1 with F22L, A243L, Q266E, G274S, I295M, M382P
# B8: UGT76G1var44: UGT76G1 variant, mutations I335V_S375R_I407V (protein, UniProt Q6VAB4 1-458, looked up, variant I335V S375R I407V)
# UDP-glycosyltransferase 76G1: B1 UDP-glycosyltransferase 76G1 with A243L, G274S, I335V, S375R, M382P, I407V
# B9: UGT76G1var48: UGT76G1 variant, mutations V394I_Y397E_Q432E (protein, UniProt Q6VAB4 1-458, looked up, variant V394I Y397E Q432E)
# UDP-glycosyltransferase 76G1: B1 UDP-glycosyltransferase 76G1 with A243L, G274S, M382P, V394I, Y397E, Q432E
# B10: UGT76G1var50: UGT76G1 variant, mutations F22Y_V310I_S375M_F377C (protein, UniProt Q6VAB4 1-458, looked up, variant F22Y V310I S375M F377C)
# UDP-glycosyltransferase 76G1: B1 UDP-glycosyltransferase 76G1 with F22Y, A243L, G274S, V310I, S375M, F377C, M382P
# B11: UGT76G1var51: UGT76G1 variant, mutations K303G_S357C_S389E_V396F (protein, UniProt Q6VAB4 1-458, looked up, variant K303G S357C S389E V396F)
# UDP-glycosyltransferase 76G1: B1 UDP-glycosyltransferase 76G1 with A243L, G274S, K303G, S357C, M382P, S389E, V396F
# B12: UGT76G1var36: UGT76G1 variant, mutations F265L_L379A_V396F (protein, UniProt Q6VAB4 1-458, looked up, variant F265L L379A V396F)
# UDP-glycosyltransferase 76G1: B1 UDP-glycosyltransferase 76G1 with A243L, F265L, G274S, L379A, M382P, V396F
# B13: UGT76G1var53: UGT76G1 variant, mutations R334K_A352G_P382M_S389E (protein, UniProt Q6VAB4 1-458, looked up, variant R334K A352G P382M S389E)
# UDP-glycosyltransferase 76G1: B1 UDP-glycosyltransferase 76G1 with A243L, G274S, R334K, A352G, S389E
# B14: UGT76G1var49: UGT76G1 variant, mutations F41L_Q266E_T284I_Y397Q (protein, UniProt Q6VAB4 1-458, looked up, variant F41L Q266E T284I Y397Q)
# UDP-glycosyltransferase 76G1: B1 UDP-glycosyltransferase 76G1 with F41L, A243L, Q266E, G274S, T284I, M382P, Y397Q
# B15: UGT76G1var52: UGT76G1 variant, mutations D301N_I373L_F377C_I407V (protein, UniProt Q6VAB4 1-458, looked up, variant D301N I373L F377C I407V)
# UDP-glycosyltransferase 76G1: B1 UDP-glycosyltransferase 76G1 with A243L, G274S, D301N, I373L, F377C, M382P, I407V
# B16: UGT76G1var39: UGT76G1 variant, mutations F22Y_F41L_V366I (protein, UniProt Q6VAB4 1-458, looked up, variant F22Y F41L V366I)
# UDP-glycosyltransferase 76G1: B1 UDP-glycosyltransferase 76G1 with F22Y, F41L, A243L, G274S, V366I, M382P
# B17: UGT76G1var35: UGT76G1 variant, mutations T284L_F314S_S357N (protein, UniProt Q6VAB4 1-458, looked up, variant T284L F314S S357N)
# UDP-glycosyltransferase 76G1: B1 UDP-glycosyltransferase 76G1 with A243L, G274S, T284L, F314S, S357N, M382P
# B18: UGT76G1var54: UGT76G1 variant, mutations E229A_T284L_R334K_Q342E (protein, UniProt Q6VAB4 1-458, looked up, variant E229A T284L R334K Q342E)
# UDP-glycosyltransferase 76G1: B1 UDP-glycosyltransferase 76G1 with E229A, A243L, G274S, T284L, R334K, Q342E, M382P
# B19: UGT76G1var45: UGT76G1 variant, mutations V279I_D301N_S389E (protein, UniProt Q6VAB4 1-458, looked up, variant V279I D301N S389E)
# UDP-glycosyltransferase 76G1: B1 UDP-glycosyltransferase 76G1 with A243L, G274S, V279I, D301N, M382P, S389E
# B20: UGT76G1var41: UGT76G1 variant, mutations L246F_A385T_K393G (protein, UniProt Q6VAB4 1-458, looked up, variant L246F A385T K393G)
# UDP-glycosyltransferase 76G1: B1 UDP-glycosyltransferase 76G1 with A243L, L246F, G274S, M382P, A385T, K393G
# B21: UGT76G1var37: UGT76G1 variant, mutations E229A_L379G_I407V (protein, UniProt Q6VAB4 1-458, looked up, variant E229A L379G I407V)
# UDP-glycosyltransferase 76G1: B1 UDP-glycosyltransferase 76G1 with E229A, A243L, G274S, L379G, M382P, I407V
# B22: UGT76G1var47: UGT76G1 variant, mutations E229A_T284I_S389E (protein, UniProt Q6VAB4 1-458, looked up, variant E229A T284I S389E)
# UDP-glycosyltransferase 76G1: B1 UDP-glycosyltransferase 76G1 with E229A, A243L, G274S, T284I, M382P, S389E
# B23: UGT76G1var40: UGT76G1 variant, mutations T263S_Q266E_S375R (protein, UniProt Q6VAB4 1-458, looked up, variant T263S Q266E S375R)
# UDP-glycosyltransferase 76G1: B1 UDP-glycosyltransferase 76G1 with A243L, T263S, Q266E, G274S, S375R, M382P
# B24: UGT76G1var34: UGT76G1 variant, mutations I43V_T284I_I295T (protein, UniProt Q6VAB4 1-458, looked up, variant I43V T284I I295T)
# UDP-glycosyltransferase 76G1: B1 UDP-glycosyltransferase 76G1 with I43V, A243L, G274S, T284I, I295T, M382P
# B25: UGT76G1var30: UGT76G1 variant, mutations I43V_E224A_S241I (protein, UniProt Q6VAB4 1-458, looked up, variant I43V E224A S241I)
# UDP-glycosyltransferase 76G1: B1 UDP-glycosyltransferase 76G1 with I43V, E224A, S241I, A243L, G274S, M382P
# B26: UGT76G1var43: UGT76G1 variant, mutations S241I_P272A_V279I (protein, UniProt Q6VAB4 1-458, looked up, variant S241I P272A V279I)
# UDP-glycosyltransferase 76G1: B1 UDP-glycosyltransferase 76G1 with S241I, A243L, P272A, G274S, V279I, M382P
# B27: UGT76G1var55: UGT76G1 variant, mutations I295M_Q342E_V366I_N409R (protein, UniProt Q6VAB4 1-458, looked up, variant I295M Q342E V366I N409R)
# UDP-glycosyltransferase 76G1: B1 UDP-glycosyltransferase 76G1 with A243L, G274S, I295M, Q342E, V366I, M382P, N409R
# B28: UGT76G1var42: UGT76G1 variant, mutations T263S_Q266S_R334H (protein, UniProt Q6VAB4 1-458, looked up, variant T263S Q266S R334H)
# UDP-glycosyltransferase 76G1: B1 UDP-glycosyltransferase 76G1 with A243L, T263S, Q266S, G274S, R334H, M382P
# B29: UGT76G1var32: UGT76G1 variant, mutations A239V_L243A_S375M (protein, UniProt Q6VAB4 1-458, looked up, variant A239V L243A S375M)
# UDP-glycosyltransferase 76G1: B1 UDP-glycosyltransferase 76G1 with A239V, G274S, S375M, M382P
# Assay: Directed evolution of UGT76G1, Rebaudioside D to Rebaudioside M, round 1 (Example 26)
# Format: biochemical
# Conditions: 100 μL fresh lysate, 0.5 mM Rebaudioside D, 30° C., pH 7.2
# Protocol: Lysis was performed by addition of Bugbuster® Master mix (Novagen®) to the thawed cells and the lysate was recovered by centrifugation. Activity tests were performed with 100 μL of fresh lysate that was added to a solution of Rebaudioside D (final concentration 0.5 mM), MgCl2 (final concentration 3 mM) and UDP-Glucose (final concentration 2.5 mM) in 50 mM phosphate buffer pH 7.2.
# The reaction was allowed to run at 30° C. and samples were taken after 2, 4, 7 and 24 h. to determine conversion and initial rate by HPLC (CAD detection) using the analytical method that was described above for the transformation of Rebaudioside D to Rebaudioside M. The results are depicted in the following table.
Molecule,conversion Reb D to Reb M after 24 h [%],initial rate [Reb M area/min]
B1,6.1,2.4E+06
B2,41.0,2.9E+07
B3,1.0,7.5E+06
B4,0.4,2.4E+05
B5,–,5.5E+07
B6,8.2,3.7E+06
B7,0.6,9.8E+05
B8,–,2.3E+07
B9,–,3.8E+07
B10,1.9,7.9E+05
B11,–,9.5E+06
B12,20.0,8.8E+06
B13,9.3,4.1E+06
B14,2.6,1.1E+06
B15,–,4.6E+06
B16,7.2,3.3E+06
B17,0.5,1.8E+05
B18,0.7,4.3E+05
B19,–,2.3E+07
B20,0.8,1.4E+06
B21,–,2.8E+07
B22,4.8,2.7E+06
B23,–,3.3E+07
B24,3.4,1.5E+06
B25,–,5.6E+06
B26,–,9.4E+06
B27,1.0,2.2E+05
B28,–,2.2E+07
B29,0.0,−4.4E+04

# From US11653679B2, “High-purity steviol glycosides” (PureCircle Sdn Bhd, priority 2014, dated 2023)
